Key:
Details in all cases: Pseudomonas putida
[1] = substrate: O=C([O-])[C@H]([O-])c1ccccc1.[Mg+2]
Description: Michaelis-Menten constant of mandelate racemase was determined at pH 7.5

[2] = substrate: O=C([O-])[C@H]([O-])c1ccccc1.[Mg+2]; remark: listed apart in the source
Description: Michaelis-Menten constant of mandelate racemase was determined at pH 6.3

[3] = substrate: O=C([O-])[C@H]([O-])c1ccccc1.[Mg+2]; remark: listed apart in the source
Description: Michaelis-Menten constant of mandelate racemase was determined at pH 8.7

B1: Mandelate racemase (Pseudomonas putida), P11444 (protein)
chain: MSEVLITGLRTRAVNVPLAYPVHTAVGTVGTAPLVLIDLATSAGVVGHSYLFAYTPVALKSLKQLLDDMAAMIVNEPLAPVSLEAMLAKRFCLAGYTGLIRMAAAGIDMAAWDALGKVHETPLVKLLGANARPVQAYDSHSLDGVKLATERAVTAAELGFRAVKTKIGYPALDQDLAVVRSIRQAVGDDFGIMVDYNQSLDVPAAIKRSQALQQEGVTWIEEPTLQHDYEGHQRIQSKLNVPVQMGENWLGPEEMFKALSIGACRLAMPDAMKIGGVTGWIRASALAQQFGIPMSSHLFQEISAHLLAATPTAHWLERLDLAGSVIEPTLTFEGGNAVIPDLPGVGIIWREKEIGKYLV
Work on B1 yielded a Km [1] of 440 µM, a Km [2] of 950 µM and a Km [3] of 2020 µM.
